{"source": "patent US10800847", "key": {"[1]": {"target": "HLA-A*6602 (A66) single antigen on beads (human)", "test": "Luminex, iBead vs regular bead, IVIg 1:8"}, "[2]": {"target": "HLA-A*4301 (A43) single antigen on beads (human)", "test": "Luminex single-antigen regular beads (#7), IVIg 1:8"}, "HLA-B*1516 (B63) (human)": {"target": "HLA-B*1516 (B63) (human)", "test": "iBead MFI against regular-bead MFI, IVIg diluted 1:8"}, "[3]": {"target": "HLA-Cw*0202 (Cw2) (human)", "test": "Luminex, iBeads (#6), 1:8"}, "[4]": {"target": "HLA-A*4301 (A43) single antigen on beads (human)", "test": "Luminex, iBead vs regular bead, IVIg 1:8"}, "[5]": {"target": "HLA-A*7401 (A74) single antigen on Luminex beads (human)", "test": "Luminex single antigen bead assay, iBeads (#6), IVIg 1:8"}, "HLA-B*1501 (B62) (human)": {"target": "HLA-B*1501 (B62) (human)", "test": "Luminex regular beads (#7), IVIg diluted 1:8"}, "[6]": {"target": "HLA-A*7401 (A74) single antigen on Luminex beads (human)", "test": "Luminex single antigen bead assay, iBeads vs regular beads, IVIg 1:8"}, "[7]": {"target": "HLA-A*6802 (A68) single antigen on Luminex beads (human)", "test": "Luminex single antigen bead assay, iBeads vs regular beads, IVIg 1:8"}, "[8]": {"target": "HLA-Cw*0401 (Cw4) (human)", "test": "Luminex, iBeads (#6), 1:8"}, "[9]": {"target": "HLA-A*3002 (A30) single antigen on beads (human)", "test": "Luminex, iBead vs regular bead, IVIg 1:8"}, "[10]": {"target": "HLA-A*3201 (A32) single antigen on beads (human)", "test": "Luminex, iBead vs regular bead, IVIg 1:8"}, "[11]": {"target": "HLA-A*6802 (A68) single antigen on Luminex beads (human)", "test": "Luminex single antigen bead assay, regular beads (#7), IVIg 1:8"}, "[12]": {"target": "HLA-Cw*0801 (Cw8) (human)", "test": "Luminex, regular beads (#7), 1:8"}, "[13]": {"target": "HLA-Cw*0102 (Cw1) (human)", "test": "Luminex, iBeads (#6), 1:8"}, "[14]": {"target": "HLA-A*3101 (A31) single antigen on beads (human)", "test": "Luminex single-antigen regular beads (#7), IVIg 1:4"}, "[15]": {"target": "HLA-A*6601 (A66) single antigen on beads (human)", "test": "Luminex single-antigen regular beads (#7), IVIg 1:4"}, "[16]": {"target": "HLA-A*3402 (A34) single antigen on beads (human)", "test": "Luminex single-antigen regular beads (#7), IVIg 1:4"}, "[17]": {"target": "HLA-A*2902 (A29) single antigen on beads (human)", "test": "Luminex single-antigen regular beads (#7), IVIg 1:4"}, "[18]": {"target": "HLA-A*3002 (A30) single antigen on beads (human)", "test": "Luminex single-antigen regular beads (#7), IVIg 1:4"}, "[19]": {"target": "HLA-A*6801 (A68) single antigen on beads (human)", "test": "Luminex single-antigen regular beads (#7), IVIg 1:4"}, "[20]": {"target": "HLA-A*3301 (A33) single antigen on beads (human)", "test": "Luminex single-antigen regular beads (#7), IVIg 1:4"}, "[21]": {"target": "HLA-A*3201 (A32) single antigen on beads (human)", "test": "Luminex single-antigen regular beads (#7), IVIg 1:4"}, "[22]": {"target": "HLA-A*3303 (A33) single antigen on beads (human)", "test": "Luminex single-antigen regular beads (#7), IVIg 1:4"}, "[23]": {"target": "HLA-B*4501 (B45) single antigen on Luminex beads (human)", "test": "Luminex single antigen, iBeads (#6), IVIg 1:8"}, "[24]": {"target": "Albumin on negative control beads (serum albumin, HSA/BSA) (human or bovine)", "test": "Luminex single antigen beads, regular beads (#7), 1:8"}, "[25]": {"target": "HLA-A*0301 (A3) on single antigen beads (human) (UniProt P04439)", "test": "Luminex single antigen beads, regular beads (#7), 1:8"}, "[26]": {"target": "HLA-B*3701 (B37) single antigen on Luminex beads (human)", "test": "Luminex single antigen, regular beads (#7), IVIg 1:8"}, "[27]": {"target": "HLA-B*4101 (B41) single antigen on Luminex beads (human)", "test": "Luminex single antigen, regular beads (#7), IVIg 1:8"}, "[28]": {"target": "HLA-B*4601 (B46) single antigen on Luminex beads (human)", "test": "Luminex single antigen, regular beads (#7), IVIg 1:8"}, "[29]": {"target": "HLA-B*4701 (B47) single antigen on Luminex beads (human)", "test": "Luminex single antigen, regular beads (#7), IVIg 1:8"}, "[30]": {"target": "HLA-B*4006 (B61) single antigen on Luminex beads (human)", "test": "Luminex single antigen, regular beads (#7), IVIg 1:8"}, "[31]": {"target": "HLA-B*4501 (B45) single antigen on Luminex beads (human)", "test": "Luminex single antigen, regular beads (#7), IVIg 1:8"}, "[32]": {"target": "HLA-B*3901 (B39) single antigen on Luminex beads (human)", "test": "Luminex single antigen, regular beads (#7), IVIg 1:8"}, "[33]": {"target": "HLA-B*4001 (B60) single antigen on Luminex beads (human)", "test": "Luminex single antigen, regular beads (#7), IVIg 1:8"}, "[34]": {"target": "HLA-B*4402 (B44) single antigen on Luminex beads (human)", "test": "Luminex single antigen, regular beads (#7), IVIg 1:8"}, "[35]": {"target": "HLA-B*3801 (B38) single antigen on Luminex beads (human)", "test": "Luminex single antigen, regular beads (#7), IVIg 1:8"}, "[36]": {"target": "HLA-B*4201 (B42) single antigen on Luminex beads (human)", "test": "Luminex single antigen, regular beads (#7), IVIg 1:8"}, "[37]": {"target": "HLA-B*4002 (B61) single antigen on Luminex beads (human)", "test": "Luminex single antigen, regular beads (#7), IVIg 1:8"}, "[38]": {"target": "HLA-B*3501 (B35) single antigen on Luminex beads (human)", "test": "Luminex single antigen, regular beads (#7), IVIg 1:8"}, "[39]": {"target": "HLA-B*2705 (B27) single antigen on Luminex beads (human)", "test": "Luminex single antigen, regular beads (#7), IVIg 1:8"}, "[40]": {"target": "HLA-B*2708 (B27) single antigen on Luminex beads (human)", "test": "Luminex single antigen, regular beads (#7), IVIg 1:8"}}, "data": [{"substance": "IVIg GamaSTAN S/D (Talecris Biotherapeutics, USA) (antibody)", "values": [{"measurement": "Difference % (iBead MFI vs regular bead MFI)", "setting": "[1]", "result": 83, "unit": "%"}, {"measurement": "MFI", "setting": "[2]", "result": 1910, "unit": "MFI"}, {"measurement": "Difference % (iBead vs regular bead)", "setting": "HLA-B*1516 (B63) (human)", "result": -7, "unit": "%"}, {"measurement": "MFI", "setting": "[3]", "result": 8100, "unit": "MFI"}]}, {"substance": "IVIg Gamunex-C Lot NKLG1 (antibody)", "values": [{"measurement": "Difference % (iBead MFI vs regular bead MFI)", "setting": "[1]", "result": 372, "unit": "%"}, {"measurement": "Difference % (iBead MFI vs regular bead MFI)", "setting": "[4]", "result": 186, "unit": "%"}, {"measurement": "MFI", "setting": "[5]", "result": 3900, "unit": "MFI"}, {"measurement": "MFI", "setting": "HLA-B*1501 (B62) (human)", "result": 0, "unit": "MFI"}, {"measurement": "Difference % (iBead vs regular bead)", "setting": "HLA-B*1516 (B63) (human)", "result": -36, "unit": "%"}, {"measurement": "Difference % (iBead MFI against regular bead MFI)", "setting": "[6]", "result": 486, "unit": "%"}, {"measurement": "Difference % (iBead MFI against regular bead MFI)", "setting": "[7]", "result": 228, "unit": "%"}, {"measurement": "MFI", "setting": "[8]", "result": 3730, "unit": "MFI"}]}, {"substance": "IVIg Octagam (Octapharma, Lachen, Switzerland) (antibody)", "values": [{"measurement": "Difference % (iBead MFI vs regular bead MFI)", "setting": "[4]", "result": -11, "unit": "%"}, {"measurement": "Difference % (iBead MFI vs regular bead MFI)", "setting": "[9]", "result": -31, "unit": "%"}, {"measurement": "Difference % (iBead MFI vs regular bead MFI)", "setting": "[10]", "result": -30, "unit": "%"}, {"measurement": "MFI", "setting": "[11]", "result": 1750, "unit": "MFI"}, {"measurement": "MFI", "setting": "[12]", "result": 4420, "unit": "MFI"}, {"measurement": "Difference % (iBead MFI against regular bead MFI)", "setting": "[6]", "result": -59, "unit": "%"}, {"measurement": "MFI", "setting": "[8]", "result": 2010, "unit": "MFI"}, {"measurement": "MFI", "setting": "[3]", "result": 1840, "unit": "MFI"}, {"measurement": "MFI", "setting": "[13]", "result": 1780, "unit": "MFI"}]}, {"substance": "IVIg Gamunex-C Lot NKLK1 (antibody)", "values": [{"measurement": "Difference % (iBead MFI vs regular bead MFI)", "setting": "[9]", "result": 151, "unit": "%"}, {"measurement": "Difference % (iBead MFI vs regular bead MFI)", "setting": "[10]", "result": 116, "unit": "%"}, {"measurement": "MFI", "setting": "[2]", "result": 1170, "unit": "MFI"}, {"measurement": "MFI", "setting": "[5]", "result": 515, "unit": "MFI"}, {"measurement": "MFI", "setting": "HLA-B*1501 (B62) (human)", "result": 15, "unit": "MFI"}, {"measurement": "MFI", "setting": "[11]", "result": 1330, "unit": "MFI"}, {"measurement": "MFI", "setting": "[12]", "result": 4540, "unit": "MFI"}, {"measurement": "Difference % (iBead MFI against regular bead MFI)", "setting": "[7]", "result": 46, "unit": "%"}, {"measurement": "MFI", "setting": "[13]", "result": 1060, "unit": "MFI"}]}, {"substance": "IVIg Sandoglobulin (Novartis, Basel, Switzerland) (antibody)", "values": [{"measurement": "MFI", "setting": "[14]", "result": 0, "unit": "MFI"}, {"measurement": "MFI", "setting": "[15]", "result": 93, "unit": "MFI"}, {"measurement": "MFI", "setting": "[16]", "result": 0, "unit": "MFI"}, {"measurement": "MFI", "setting": "[17]", "result": 200, "unit": "MFI"}, {"measurement": "MFI", "setting": "[18]", "result": 174, "unit": "MFI"}, {"measurement": "MFI", "setting": "[19]", "result": 0, "unit": "MFI"}, {"measurement": "MFI", "setting": "[20]", "result": 185, "unit": "MFI"}, {"measurement": "MFI", "setting": "[21]", "result": 255, "unit": "MFI"}, {"measurement": "MFI", "setting": "[22]", "result": 0, "unit": "MFI"}]}, {"substance": "Octagam (IVIg, Octapharma, Lachen, Switzerland) (antibody)", "values": [{"measurement": "MFI", "setting": "[23]", "result": 308, "unit": "MFI"}, {"measurement": "MFI", "setting": "[24]", "result": 2340, "unit": "MFI"}, {"measurement": "MFI", "setting": "[25]", "result": 515, "unit": "MFI"}, {"measurement": "MFI", "setting": "[26]", "result": 9970, "unit": "MFI"}, {"measurement": "MFI", "setting": "[27]", "result": 393, "unit": "MFI"}, {"measurement": "MFI", "setting": "[28]", "result": 2440, "unit": "MFI"}, {"measurement": "MFI", "setting": "[29]", "result": 2200, "unit": "MFI"}, {"measurement": "MFI", "setting": "[30]", "result": 4970, "unit": "MFI"}, {"measurement": "MFI", "setting": "[31]", "result": 956, "unit": "MFI"}, {"measurement": "MFI", "setting": "[32]", "result": 0, "unit": "MFI"}, {"measurement": "MFI", "setting": "[33]", "result": 987, "unit": "MFI"}, {"measurement": "MFI", "setting": "[34]", "result": 4000, "unit": "MFI"}, {"measurement": "MFI", "setting": "[35]", "result": 1000, "unit": "MFI"}, {"measurement": "MFI", "setting": "[36]", "result": 364, "unit": "MFI"}, {"measurement": "MFI", "setting": "[37]", "result": 271, "unit": "MFI"}, {"measurement": "MFI", "setting": "[38]", "result": 964, "unit": "MFI"}, {"measurement": "MFI", "setting": "[39]", "result": 154, "unit": "MFI"}, {"measurement": "MFI", "setting": "[40]", "result": 54, "unit": "MFI"}]}]}
